# Results: patent publication US20200129630A1, “METHODS FOR TREATING CANCER” (BicycleRD Limited, priority 2018, published 2020)
# Numbered stars: 1 amine (or outer) side, 2 acyl side, 3 side chain; on linkers, the order of the positions; unused ones are H or OH. Bridge positions count the residues as written; N and C are the ends. Square brackets hold non-standard residues; d marks the D form. Peptide text beside a SMILES is read from it. * marks the point of attachment. X1 = COc1cc2cc(c1Cl)N(C)C(=O)C[C@H](OC(=O)[C@H](C)N(C)C(=O)CCSSC(C)CCC(=O)*)[C@]1(C)O[C@H]1[C@H](C)[C@@H]1C[C@@](O)(NC(=O)O1)[C@H](OC)/C=C/C=C(\C)C2; 1Nal = N[C@@H](Cc1cccc2ccccc12)C(=O)O; TBMB = c1c(C[*:1])cc(C[*:3])cc1C[*:2]; Tle = CC(C)(C)[C@H](N)C(=O)O; βAla = NCCC(=O)O; Sar = CNCC(=O)O
# Legend:
# EBC-1 = test: In vitro cytotoxicity (CellTiter-Glo) EBC-1; type: cell-based; conditions: EBC-1, Lung
# Description: (§1) Table 1 and Table 2 Notes: in general regression and stable disease correlated with the in vitro cytotoxicity and MT1-MMP expression. Female BALB/c mice n=3/group animals dosed twice per week except EBC-1 three per week. Tumor growth inhibition (TGI) (%)=[1−(Ti−T0)/(Vi−V0)]×100; Ti is the average tumor volume of a treatment group on a given day, TO is the average tumor volume of the treatment group on the day of treatment start, Vi is the average tumor volume of vehicle control group on the same day with Ti, and V0 is the average tumor volume of vehicle group on the day of treatment start. A one-way ANOVA was performed to compare tumor volume among groups, and when a significant F-statistics (a ratio of treatment variance to the error variance) was obtained, comparisons between groups were carried out with Games-Howell test. All data were analyzed using GraphPad Prism.* p<0.05, ** p<0.01, *** p<0.001. In vitro cytotoxicity was measured by CellTiter-Glo®, MT1-MMP membrane H score from immunohistochemistry staining, NM not measured. Tumor size on Day 1 of dosing.
# HT-1080 = test: In vitro cytotoxicity (CellTiter-Glo) HT-1080; type: cell-based; conditions: HT-1080, Fibrosarcoma
# Description: as §1
# HCT-15 = test: In vitro cytotoxicity (CellTiter-Glo) HCT-15; type: cell-based; conditions: HCT-15, Colorectal
# Description: as §1
# HT-29 = test: In vitro cytotoxicity (CellTiter-Glo) HT-29; type: cell-based; conditions: HT-29, Colorectal
# Description: as §1
# [1] = ECG, respiratory plethysmography and blood pressure (GLP safety pharmacology); type: in vivo; conditions: monkeys 0.2, 0.5, 1 and 1.5 mg/kg twice weekly
# Experimental: As part of the Good Laboratory Practice (GLP)-compliant toxicity studies, a core battery of safety pharmacology tests were performed. […] Electrocardiogram (ECG) and respiratory plethysmography measurements were taken in monkeys dosed at 0.2, 0.5, 1 and 1.5 mg/kg (2.4, 6, 12 and 18 mg/m^2 respectively) twice weekly on Day 4, Day 22 (following 2nd and 7th dose) and in the recovery period (for animals dosed with 0, 6 and 12 mg/m^2 twice weekly). Blood pressure (BP) measurements were also evaluated in the same monkeys on Day 1 and Day 25 and in the recovery period. […] It is therefore concluded that BT1718 has no cardiac, respiratory or behavioral liability at the doses and schedule tested in the GLP toxicity studies.
# [2] = Stability in plasma in vitro, monkey; type: in vitro ADME; conditions: 37° C.
# Experimental: (§2) The stability of BT1718 was assessed in plasma and whole blood from humans, monkey, dog, mouse and rat. […] The mechanism for the difference in stability of the BT1718 peptide in whole blood between the different species is unknown.
# [3] = Stability in whole blood in vitro, human; type: in vitro ADME; conditions: 37° C.
# Experimental: as §2
# [4] = Stability in whole blood in vitro, monkey; type: in vitro ADME; conditions: 37° C.
# Experimental: as §2
# [5] = Plasma protein binding, rat; type: in vitro ADME, rats; conditions: read-out: free fraction
# Experimental: (§3) Plasma protein binding of BT1718 was also assessed. The mean plasma protein binding of the BT1718 peptide ranged from 87% to 98%, with the free fraction of BT1718 being 13% in human, 2.6% in rats, 7.5% in mice, 3.8% in monkey and 1.5% in dog plasma, the results had no correlation to the plasma and whole blood stability data. […] Plasma protein binding of unconjugated DM1, has previously been reported, with the unbound fraction being 7% in human and monkey and 3% in rat.
# [6] = Plasma protein binding, mouse; type: in vitro ADME, mice; conditions: read-out: free fraction
# Experimental: as §3
# [7] = Plasma protein binding, monkey; type: in vitro ADME; conditions: read-out: free fraction
# Experimental: as §3
# [8] = Plasma protein binding, dog; type: in vitro ADME; conditions: read-out: free fraction
# Experimental: as §3
# [9] = GLP-compliant 28-day repeat dose toxicity study, rat; type: in vivo
# Experimental: (§4) In a GLP-compliant study in Cynomolgus monkeys, the highest non-severely toxic dose (HNSTD) of BT1718 was established to be 18 mg/m^2 administered twice weekly, equivalent to a human dose of 0.48 mg/kg. In a GLP-compliant study in the rat, the MTD was not reached with the highest administered dose 6 mg/m^2 twice weekly. At this dose level, there was kidney toxicity (with no effect on clinical condition) and also testicular toxicity. After 28 days off-dose, there was evidence of partial recovery of kidney-related findings, but no recovery of testicular effects at this dose level. […] Therefore, the MTD for rat for twice weekly dosing was considered to be between 1 and 1.5 mg/kg.
# [10] = Non-GLP toxicity studies, rat; type: in vivo
# Experimental: as §4
# [11] = CD1 mouse dose response PK study
# EBC-1 xenograft = test: Dosing schedule experiment in EBC-1 xenograft mice; conditions: 60 mg/m^2 once weekly
# Experimental: Anti-tumor activity was compared when equivalent total weekly doses were administered either once, twice or three times weekly or once daily.
# [12] = rat GLP, 1 mg/kg (6 mg/m^2) twice weekly
# [13] = rat GLP, males 1 mg/kg (6 mg/m^2) twice weekly
# [14] = male, CD1, mouse, plasma, iv, 15 mg/m2
# [15] = male, CD1, mouse, plasma, iv, 30 mg/m2
# [16] = male, CD1, mouse, plasma, iv, 60 mg/m2
compound,measurement,setting,value
COc1cc2cc(c1Cl)N(C)C(=O)C[C@H](OC(=O)[C@H](C)N(C)C(=O)CCSSC(C)CCC(=O)NCCC(=O)N(C)CC(=O)N(C)CC(=O)N(C)CC(=O)N(C)CC(=O)N(C)CC(=O)N(C)CC(=O)N(C)CC(=O)N(C)CC(=O)N(C)CC(=O)N(C)CC(=O)N[C@@H](C)C(=O)N[C@H]1CSCc3cc4cc(c3)CSC[C@H](NC(=O)[C@@H](C)NC(=O)[C@H](Cc3cccc5ccccc35)NC(=O)[C@H](CCC(=O)O)NC(=O)[C@H](CC(N)=O)NC(=O)[C@@H](C)NC1=O)C(=O)N[C@@H](CCC(=O)O)C(=O)N[C@@H](CC(=O)O)C(=O)N[C@@H](Cc1ccccc1)C(=O)N[C@@H](Cc1ccc(O)cc1)C(=O)N[C@@H](CC(=O)O)C(=O)N[C@@H](C(C)(C)C)C(=O)N[C@H](C(N)=O)CSC4)[C@]1(C)O[C@H]1[C@H](C)[C@@H]1C[C@@](O)(NC(=O)O1)[C@H](OC)/C=C/C=C(\C)C2 (stereo partly drawn) [BT1718] ({X1-βAla}-[Sar][Sar][Sar][Sar][Sar][Sar][Sar][Sar][Sar][Sar]AC[dA]NE[1Nal][dA]CEDFYD[Tle]C-NH2; linker 12-18-25 via TBMB (inferred)),IC50,EBC-1,27 nM
same,IC50,HT-1080,4.3 nM
same,IC50,HCT-15,870 nM
same,IC50,HT-29,13 nM
same,"ECG, respiratory plethysmography, blood pressure findings",[1],no BT1718 related findings
same,half-life,[2],> 300 min
same,half-life,[3],120 to 240 min
same,half-life,[4],120 to 240 min
same,fraction unbound,[5],0.026
same,fraction unbound,[6],0.075
same,fraction unbound,[7],0.038
same,fraction unbound,[8],0.015
same,GI-related findings,[9]; GLP rat,No GI-related findings
same,bladder changes,[9]; GLP rat,No bladder changes
same,MTD,"[9]; GLP rat, highest administered dose 6 mg/m^2 twice weekly",not reached
same,MTD at 28 day,"[9]; in vivo, intravenous, considered from GLP and non-GLP rat studies, read-out: MTD for rat for twice weekly dosing",1 to 1.5 mg/kg
same,anti-drug antibodies (ADAs) in serum,[9]; rat 28-day GLP study,negative
same,hepatic findings,"[9]; rat GLP 28 day, 1 mg/kg (6 mg/m^2) twice weekly",minimal to slight reversible hepatocellular atrophy
same,"raised ALP, AST and cholesterol, from control values","[9]; rat GLP 28 day, 1 mg/kg twice weekly",≤ 1.5 ×
same,"erythrocyte parameters, maximum drop",[9]; [12],0.64 ×
same,"increase in platelets, maximum",[9]; [12],2.3 ×
same,reduction in reticulocytes,"[9]; rat GLP, 1 mg/kg (6 mg/m^2) twice weekly, females",0.37 ×
same,reduction in reticulocytes,"[9]; rat GLP, 1 mg/kg (6 mg/m^2) twice weekly, males",0.06 ×
same,reproductive organ findings,"[9]; rat GLP, all males 1 mg/kg (6 mg/m^2) twice weekly",testicular degeneration/atrophy of the seminiferous tubules and the absence of sperm
same,incidence of minimal hypertrophy of the zona glomerulosa,"[9]; rat GLP, females 1 mg/kg (6 mg/m^2) twice weekly",5 of 10
same,incidence of minimal hypertrophy of the zona glomerulosa,"[9]; rat GLP, males 0.2 mg/kg (1.2 mg/m^2) twice weekly",2 of 10
same,incidence of minimal hypertrophy of the zona glomerulosa,"[9]; rat GLP, males 0.5 mg/kg (3 mg/m^2) twice weekly",3 of 10
same,adrenal gland terminal weights,[9]; [13],significantly lower terminal weights
same,incidence of minimal hypertrophy of the zona glomerulosa,[9]; [13],4 of 10
same,onset dose of renal tubular epithelial degeneration,"[9]; rat GLP, twice weekly",0.2 mg/kg
same,axonal degeneration,[9]; rat study,not observed
same,tolerability,"[10]; non-GLP rat, 9 mg/m^2 twice weekly",not well tolerated
same,GI findings,[10]; rat 5.03 mg/kg (30.2 mg/m^2) twice,Single cell necrosis of the ileum
same,bladder findings,"[10]; rat, single administration of 40 mg/m^2",Bladder epithelial degeneration
same,peripheral haematology,"[10]; rats 1.5 mg/kg, 9 mg/m^2 twice weekly",significant decreases in WBCs
same,hepatic findings,"[10]; rats 3.35 mg/kg, 20.1 mg/m^2 twice weekly",Elevated liver enzymes
same,renal findings,"[10]; rats >1 mg/kg, 6 mg/m^2 twice weekly",Moderate renal tubule degeneration and epithelial mitosis
same,AUC,"[11]; CD1, mouse, plasma, intravenous, 10 mg/kg",5.3 µM·h
same,AUC,"[11]; CD1 mouse, male, 30 mg/m^2 IV",5.3
same,AUC,"[11]; CD1 mouse, male, 60 mg/m^2 IV",11.6
same,AUC,"[11]; male, CD1, mouse, plasma, intravenous, 20 mg/kg",11.6 µM·h
same,AUC,[11]; [14],2.8 µM·h
same,Cmax,[11]; [14],9.3 µM
same,Vd,[11]; [14],0.2 L/kg
same,clearance,[11]; [14],8.4 mL/min/kg
same,half-life,[11]; [14],19.8 min
same,Cmax,"[11]; male, CD1, mouse, plasma, iv, 20 mg/kg",38.2 µM
same,Vd,[11]; [15],0.27 L/kg
same,clearance,[11]; [15],9 mL/min/kg
same,half-life,[11]; [15],20.4 min
same,Vd,[11]; [16],0.22 L/kg
same,clearance,[11]; [16],8.2 mL/min/kg
same,half-life,[11]; [16],20.4 min
same,weight loss,EBC-1 xenograft,> 10%
